± gives the standard deviation of the averaged measurements.
Key:
MCF7 = experiment: percentage of EdU-negative (G0-arrested) nuclei per well, 72 h; higher = more G0 arrest; details: reference: sequence is the full UniProt precursor, the tested protein was the secreted form or ectodomain
hTERT-HMEC = experiment: as above; details: reference: sequence is the full UniProt precursor, the tested protein was the secreted form or ectodomain
[1] = protein concentration 0.0225 µM
[2] = protein concentration 0.0357143 µM
[3] = protein concentration 0.357143 µM
[4] = protein concentration 0.0257143 µM
[5] = protein concentration 0.257143 µM
[6] = protein concentration 0.0185 µM
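Further: secreted proteins added to cultured cells, EdU pulse at the end, nuclei found by Hoechst imaging, EdU status from nuclear versus surrounding ring intensity ratio, PBS as neutral control.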

Sequence	percentage of EdU-negative (MCF7; [1]) [%]	percentage of EdU-negative (MCF7; protein concentration 0.225 µM) [%]	percentage of EdU-negative (hTERT-HMEC; [1]) [%]	percentage of EdU-negative (hTERT-HMEC; protein concentration 0.225 µM) [%]	also measured
MAAAVVLAAGLRAARRAVAATGVRGGQVRGAAGVTDGNEVAKAQQATPGGAAPTIFSRILDKSLPADILYEDQQCLVFRDVAPQAPVHFLVIPKKPIPRISQAEEEDQQLLGHLLLVAKQTAKAEGLGDGYRLVINDGKLGAQSVYHLHIHVLGGRQLQWPPG [Q9BX68]	24.7 ± 1.1	26.8 ± 0.95	4.56 ± 0.51	5.01 ± 0.41	
MAAAWTVVLVTLVLGLAVAGPVPTSKPTTTGKGCHIGRFKSLSPQELASFKKARDALEESLKLKNWSCSSPVFPGNWDLRLLQVRERPVALEAELALTLKVLEAAAGPALEDVLDQPLHTLHHILSQLQACIQPQPTAGPRPRGRLHHWLHRLQEAPKKESAGCLEASVTFNLFRLLTRDLKYVADGNLCLRTSTHPEST [Q8IU54]					percentage of EdU-negative (MCF7; [2]): 25.7 ± 0.7%; percentage of EdU-negative (MCF7; [3]): 26.7 ± 1.7%; percentage of EdU-negative (hTERT-HMEC; [2]): 7.03 ± 0.88%; percentage of EdU-negative (hTERT-HMEC; [3]): 20.5 ± 5.7%
MAAEPLTELEESIETVVTTFFTFARQEGRKDSLSVNEFKELVTQQLPHLLKDVGSLDEKMKSLDVNQDSELKFNEYWRLIGELAKEIRKKKDLKIRKK	27.3 ± 1.9	25.4 ± 0.45	4.78 ± 0.24	5.02 ± 0.53	
MAAERGARRLLSTPSFWLYCLLLLGRRAPGAAAARSGSAPQSPGASIRTFTPFYFLVEPVDTLSVRGSSVILNCSAYSEPSPKIEWKKDGTFLNLVSDDRRQLLPDGSLFISNVVHSKHNKPDEGYYQCVATVESLGTIISRTAKLIVAGLPRFTSQPEPSSVYAGNNAILNCEVNADLVPFVRWEQNRQPLLLDDRVIKLPSGMLVISNATEGDGGLYRCVVESGGPPKYSDEVELKVLPDPEVISDLVFLKQPSPLVRVIGQDVVLPCVASGLPTPTIKWMKNEEALDTESSERLVLLAGGSLEISDVTEDDAGTYFCIADNGNETIEAQAELTVQAQPEFLKQPTNIYAHESMDIVFECEVTGKPTPTVKWVKNGDMVIPSDYFKIVKEHNLQVLGLVKSDEGFYQCIAENDVGNAQAGAQLIILEHAPATTGPLPSAPRDVVASLVSTRFIKLTWRTPASDPHGDNLTYSVFYTKEGIARERVENTSHPGEMQVTIQNLMPATVYIFRVMAQNKHGSGESSAPLRVETQPEVQLPGPAPNLRAYAASPTSITVTWETPVSGNGEIQNYKLYYMEKGTDKEQDVDVSSHSYTINGLKKYTEYSFRVVAYNKHGPGVSTPDVAVRTLSDVPSAAPQNLSLEVRNSKSIMIHWQPPAPATQNGQITGYKIRYRKASRKSDVTETLVSGTQLSQLIEGLDRGTEYNFRVAALTINGTGPATDWLSAETFESDLDETRVPEVPSSLHVRPLVTSIVVSWTPPENQNIVVRGYAIGYGIGSPHAQTIKVDYKQRYYTIENLDPSSHYVITLKAFNNVGEGIPLYESAVTRPHTDTSEVDLFVINAPYTPVPDPTPMMPPVGVQASILSHDTIRITWADNSLPKHQKITDSRYYTVRWKTNIPANTKYKNANATTLSYLVTGLKPNTLYEFSVMVTKGRRSSTWSMTAHGTTFELVPTSPPKDVTVVSKEGKPKTIIVNWQPPSEANGKITGYIIYYSTDVNAEIHDWVIEPVVGNRLTHQIQELTLDTPYYFKIQARNSKGMGPMSEAVQFRTPKADSSDKMPNDQASGSGGKGSRLPDLGSDYKPPMSGSNSPHGSPTSPLDSNMLLVIIVSVGVITIVVVVIIAVFCTRRTTSHQKKKRAACKSVNGSHKYKGNSKDVKPPDLWIHHERLELKPIDKSPDPNPIMTDTPIPRNSQDITPVDNSMDSNIHQRRNSYRGHESEDSMSTLAGRRGMRPKMMMPFDSQPPQPVISAHPIHSLDNPHHHFHSSSLASPARSHLYHPGSPWPIGTSMSLSDRANSTESVRNTPSTDTMPASSSQTCCTDHQDPEGATSSSYLASSQEEDSGQSLPTAHVRPSHPLKSFAVPAIPPPGPPTYDPALPSTPLLSQQALNHHIHSVKTASIGTLGRSRPPMPVVVPSAPEVQETTRMLEDSESSYEPDELTKEMAHLEGLMKDLNAITTA					percentage of EdU-negative (MCF7; [4]): 24 ± 1.2%; percentage of EdU-negative (MCF7; [5]): 26.44 ± 0.25%; percentage of EdU-negative (hTERT-HMEC; [4]): 6.13 ± 1.3%; percentage of EdU-negative (hTERT-HMEC; [5]): 12.3 ± 1.7%
MAAFPHKIIFFLVCSTLTHVAFSGIFNKRDFTRWPKPRCKMYIPLDPDYNADCPNVTAPVCASNGHTFQNECFFCVEQREFHYRIKFEKYGKCD [Q1W4C9]	26.8 ± 1.7	27.7 ± 0.31	5.06 ± 0.42	7.07 ± 0.77	
MAAHLLPICALFLTLLDMAQGFRGPLLPNRPFTTVWNANTQWCLERHGVDVDVSVFDVVANPGQTFRGPDMTIFYSSQLGTYPYYTPTGEPVFGGLPQNASLIAHLARTFQDILAAIPAPDFSGLAVIDWEAWRPRWAFNWDTKDIYRQRSRALVQAQHPDWPAPQVEAVAQDQFQGAARAWMAGTLQLGRALRPRGLWGFYGFPDCYNYDFLSPNYTGQCPSGIRAQNDQLGWLWGQSRALYPSIYMPAVLEGTGKSQMYVQHRVAEAFRVAVAAGDPNLPVLPYVQIFYDTTNHFLPLDELEHSLGESAAQGAAGVVLWVSWENTRTKESCQAIKEYMDTTLGPFILNVTSGALLCSQALCSGHGRCVRRTSHPKALLLLNPASFSIQLTPGGGPLSLRGALSLEDQAQMAVEFKCRCYPGWQAPWCERKSMW	26.3 ± 0.86	26 ± 1.1	5.35 ± 0.22	5.55 ± 0.18	
MAALLLGAVLLVAQPQLVPSRPAELGQQELLRKAGTLQDDVRDGVAPNGSAQQLPQTIIIGVRKGGTRALLEMLSLHPDVAAAENEVHFFDWEEHYSHGLGWYLSQMPFSWPHQLTVEKTPAYFTSPKVPERVYSMNPSIRLLLILRDPSERVLSDYTQVFYNHMQKHKPYPSIEEFLVRDGRLNVDYKALNRSLYHVHMQNWLRFFPLRHIHIVDGDRLIRDPFPEIQKVERFLKLSPQINASNFYFNKTKGFYCLRDSGRDRCLHESKGRAHPQVDPKLLNKLHEYFHEPNKKFFELVGRTFDWH					percentage of EdU-negative (MCF7; [6]): 21.85 ± 0.18%; percentage of EdU-negative (MCF7; protein concentration 0.185 µM): 26.7 ± 1.6%; percentage of EdU-negative (hTERT-HMEC; [6]): 4.41 ± 0.35%; percentage of EdU-negative (hTERT-HMEC; protein concentration 0.185 µM): 11.85 ± 0.08%
MAALSRALGPLRTPAPPLWIGLFLVATGSQQSLAQPLPGNTTEATPRSLRASGSLCGPHAKAPYLCEATHEPAAARIRAQVPDTRWSRVGGQRFYSRVLSPLHRGPSGHTEASAQRSHMGKLKEPQPQDHKPGLGAS [Q6UXU0]	27.9 ± 0.64	23.7 ± 2.8	5.38 ± 0.31	5.92 ± 0.84	

Source: the supplement of paper PMC11316812
